Source: patent US20230365685A1 (SUZHOU NEOLOGICS BIOSCIENCE, published 2023)
Substitutions are numbered along the chain they refer to.

T1: cynomolgus TIM-3 (cynomolgus, UniProt A0A2K5U3G7 22-294)
T1 construct: whole, on cells
T1 sequence: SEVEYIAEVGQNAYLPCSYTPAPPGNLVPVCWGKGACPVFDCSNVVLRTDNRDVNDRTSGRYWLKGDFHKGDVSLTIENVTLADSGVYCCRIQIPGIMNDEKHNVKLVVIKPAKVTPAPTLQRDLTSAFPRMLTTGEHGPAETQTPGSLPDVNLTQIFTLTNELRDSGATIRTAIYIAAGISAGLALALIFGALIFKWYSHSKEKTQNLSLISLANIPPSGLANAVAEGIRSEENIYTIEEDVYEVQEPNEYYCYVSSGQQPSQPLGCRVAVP

B1: 3E6 (antibody, V domains shown)
VH: DVQLQEAGPGLVKPSQSLSLNCTVTGYSITSGFAWNWIRQFPGNKLEWMGYISHSGSTSYNPSLKSRISITRDTSKNQFFLQLNSVTTEDTATYYCARGYRSPWFAYWGQGTLVTVSA
VL: DIIMTQSQKFMSTSVGDRVSVTCKASQNVGANVAWYQQKPRQSPKALIYSASYRYSGVPDRFTGSGSGTDFTLTISNVQSEDLAEYFCQQYNSYPTFGGGTKLEIK
B2: 19D11 (antibody, V domains shown)
VH: B1 VH with A7S, G10D, N21T, F33Y, A34S, N36H, S53Y, H54F, S59N, P103A
VL: DIVMTQSQKFMSTSVGDRVSVTCKASQNVGTNVAWYQQKPGQSPKTLIYSASYRYSGVPDRFTGSGSGTDFTLTISNVQSEDLAEYFCQQYNSYPLVTFGTGTKLELK
B3: 16H1 (antibody, V domains shown)
VH: QVQLQQSGPQLVRPGSSVQISCKTSGYSFTSYLMHWVRQRPGQGLEWIGSIDPSDSEISLNQKFMDKATLTVDKSSSTANMQFSSPTSEDSAVYFCARDFGYVAWFVYWGQGTLVTVSA
VL: DIVMTQSHKFMSTSIEDRVSITCKASQDVSAAVAWYQQKPGQTPKLLIYSTFYRYIGVPDRFTGSGSGTDFTFTITSVQAEDLAVYFCQQHYSVPWTFGGGTKLEIK
notes: also called I6H1
B4: CH 10# (antibody, V domains shown)
VH: QVQLQQSGAELMKPGASVKISCKAIGYTFSSYWIEWVKQRPGHGLEWIGEISPGRGSTNYNEKFKGKATFTADTSSNTAYMQLSSLTSEDSAVYYCARDYYGSIFDVWGQGTTVTVSS
VL: DIELTQSPALMAASPGEKVTITCSASSSVSSSYLHWYQQKPGSSPKLWIYSTSNLASGVPARFSGSGSGTSYSLTISSMEAEDAATYYCQQWSSYPLTFGAGTKLEIK
B5: 4H2 (antibody, V domains shown)
VH: EVQLQESGPSLVKPSQTLSLTCSVTGDSITSGYWNWIRKFPGNKLEYMGYINYSGSTYYNPSLKSRISITRDTSKNQYYLQLNSVTTEDTATYYCATGNHFDYWGQGTTLTVSS
VL: DIQMTQSPSSLSASLGGKVTITCKASQDINKYIAWYQHKPGKGPRLLIHYTSTLQPGIPSRFSGSGSGTDYSFSISNLEPEDFATYYCLQYDNLLFTFGSGTKLEIK
B6: 3F2 (antibody, V domains shown)
VH: EVQLQQSGPELVKTGSSVKISCKASGYSFTGYYMHWVRQSPGKSLEWIGYISCYNGATNYNQKFKGKATFTVDTYSSTAYMQFDSLASEDSAVYYCVRDYYLSVMDYWGQGTSVTVSS
VL: NIMMTQSPSSLAVSAGEKVTMSCKSSQSVLYSSNQKNYLAWYQQKPGQSPKLLIYWASFRESGVPDRFTGSGSGTDFTLTISSVQAEDLAVYYCHQSLSSYTFGGGTKLEIK
B7: 39D1 (antibody, V domains shown)
VH: QVQLQQSGAELMKPGASVKISCKATGYTFSSSYWIEWVKQRPGHGLEWIGEILPGSGSINYNEKFKGKATFTADTSSNTVYMQLSSLTSDDSAVYYCARSYYYVMDYWGQGTSVTVSS
VL: QIVLTQSPAIMSASPGEMLTITCSASSSVRFMHWFQQKPGTSPKLWIYSTSNLASGVPARFSGSGSGTSYSLTVSRMEAEDAATYYCQQRSSYPPTFGGGTKLEIK

What follows are binders tested against T2, biotinylated human TIM-3 (human, UniProt Q8TDQ0 22-202, limits assumed, biotinylated (sites not given)) (assay: competition ELISA: antibody coated, biotinylated human TIM-3 preincubated with competitor 16H1).
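For inhibit percentage in this document: plate-coated antibody at 2 µg/mL.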

Row | inhibit percentage | Binder
1 | 26.3% | B1
2 | 0% | B2
3 | 100% | B3
4 | 45.8% | B4
5 | 28.9% | B5

The binders below were run against T2, biotinylated human TIM-3 (assay: competition ELISA: antibody coated, biotinylated human TIM-3 preincubated with competitor MBG453).
Experimental: (§1) Antibodies were diluted with PBS to 2 μg/mL. 50 μl antibody solution was added to each well of the 96-well plate, which was incubated at 4° C. overnight. The plate was then washed with wash buffer (0.05% Tween in PBS) three times and blocked with 5% skim milk in PBS at 37° C. for two hours. The biotinylated human TIM-3 and antibodies were preincubated at room temperature for half an hour and then added to the plate. The plate was then incubated at room temperature for 1 hour and washed three times with wash buffer. 50 μl streptavidin HRP (1:1000, BD) was then added to each well at room temperature and incubated for about 1 hour. 50 μl of TMB substrate was added to each well, and the reaction was then terminated with 50 μl HCL after 1-5 minutes. Absorbance was read at 450 nm and IC50 value was analyzed.

Row | inhibit percentage | Binder
6 | 24.9% | B1
7 | 0% | B2
8 | 81.7% | B3
9 | 35.4% | B4
10 | 28% | B5

Each binder was assayed against T1, cynomolgus TIM-3 (assay: flow cytometry on 293T cells stably expressing cynomolgus TIM-3, serially diluted antibody, PE-labelled secondary antibody [upper panel]).
Experimental: (§2) Briefly, serially diluted anti-TIM-3 antibodies were incubated with cell lines stably expressing mouse TIM-3 or cynomolgus TIM-3 (10⁵ cells/well). Then, PE-labelled mouse anti-human IgG antibody (Biolegend) was used as detection antibody. A flow cytometer (Canto II, BD, USA) was used to measure fluorescence.

Row | EC50 (read off the curve) | Binder
11 | ~0.1 µg/mL | B1
12 | ~0.04 µg/mL | B3
13 | ~0.07 µg/mL | B5

Each binder was assayed against T2, biotinylated human TIM-3 (assay: competition ELISA: antibody coated, biotinylated human TIM-3 preincubated with competitor TSR022).
Experimental: as §1

Row | inhibit percentage | Binder
14 | 16.4% | B1
15 | 10.3% | B2
16 | 4.02% | B3
17 | 48.5% | B4
18 | 16.7% | B5

The binders below were run against T1, cynomolgus TIM-3 (assay: flow cytometry on 293T cells stably expressing cynomolgus TIM-3, serially diluted antibody, PE-labelled secondary antibody [lower panel]).
Experimental: as §2

Row | EC50 (read off the curve) | Binder
19 | ~0.4 µg/mL | B6
20 | ~0.02 µg/mL | B7

The binders below were run against T2, biotinylated human TIM-3 (assay: competition ELISA: antibody coated, biotinylated human TIM-3 preincubated with competitor 3E6).
Experimental: as §1

Row | inhibit percentage | Binder
21 | 100% | B1
22 | 100% | B2
23 | 60% | B3
24 | 98.2% | B4
25 | 99.9% | B5

These binders were tested against T3, human TIM-3 recombinant protein (TIM-3-his) (human, UniProt Q8TDQ0 22-202) (assay: biosensor (HFC sensor, Probe Life): antibody captured, TIM-3-his in solution, 1:1 fit;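 also: antigen applied as a twofold dilution series, association and dissociation phases recorded, KD obtained as koff divided by kon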).
T3 construct: also called TIM-3 protein; not shown: His tag

Row | Kd | koff | kon | Binder
26 | 1110 pM | 0.00066 s⁻¹ | 596000 M⁻¹ s⁻¹ | B6
27 | 230 pM | 0.000284 s⁻¹ | 1.24e+06 M⁻¹ s⁻¹ | B1
28 | 604 pM | 0.00037 s⁻¹ | 613000 M⁻¹ s⁻¹ | B2
29 | 1130 pM | 0.00141 s⁻¹ | 1.25e+06 M⁻¹ s⁻¹ | B7
30 | 168 pM | 0.000218 s⁻¹ | 1.3e+06 M⁻¹ s⁻¹ | B3
31 | 38200 pM | 0.00148 s⁻¹ | 38600 M⁻¹ s⁻¹ | B4
32 | 424 pM | 0.000558 s⁻¹ | 1.32e+06 M⁻¹ s⁻¹ | B5

Each binder was assayed against T2, biotinylated human TIM-3 (assay: competition ELISA: antibody coated, biotinylated human TIM-3 preincubated with competitor 19D11).
Experimental: as §1

Row | inhibit percentage | Binder
33 | 38.7% | B1
34 | 100% | B2
35 | 0.06% | B3
36 | 98.1% | B4
37 | 39% | B5

Each binder was assayed against T2, biotinylated human TIM-3 (assay: competition ELISA: antibody coated, biotinylated human TIM-3 preincubated with competitor 4H2).
Experimental: as §1

Row | inhibit percentage | Binder
38 | 99.6% | B1
39 | 100% | B2
40 | 64.7% | B3
41 | 98.6% | B4
42 | 100% | B5

Each binder was assayed against T2, biotinylated human TIM-3 (assay: competition ELISA: antibody coated, biotinylated human TIM-3 preincubated with competitor CH 10#).
Experimental: as §1

Row | inhibit percentage | Binder
43 | 50.1% | B1
44 | 100% | B2
45 | 15.1% | B3
46 | 100% | B4
47 | 56.8% | B5

These binders were tested against T4, human TIM-3 (human, UniProt Q8TDQ0 22-202, limits assumed) (assay: blocking assay, flow cytometry: antibody preincubated with recombinant human TIM-3-Fc, then binding of TIM-3-Fc to apoptotic 293T cells; blocked ligand: phosphatidylserine).
T4 construct: also called HAVCR2; target antigen
Experimental: After the cells were washed once, PE-labelled goat anti-mouse IgG antibody was added and incubated for 1 hour at 4° C. Finally, samples were washed once with 1× Annexin-V buffer and fluorescence was measured with a flow cytometer (Canto II, BD, USA).

Row | IC50 (read off the curve) | Binder
48 | ~4 µg/mL | B1
49 | ~7 µg/mL | B2
50 | ~2 µg/mL | B3
51 | ~4 µg/mL | B4
52 | ~4 µg/mL | B5

These binders were tested against T5, mouse TIM-3 (mouse, UniProt Q8VIM0 20-281) (assay: flow cytometry on cells stably expressing mouse TIM-3, PE-labelled secondary antibody; concentration not shown).
T5 construct: whole, on cells

Row | binding result | Binder
53 | no binding | B1
54 | no binding | B2
55 | no binding | B3
56 | no binding | B4
57 | no binding | B5

These binders were tested against T2, biotinylated human TIM-3 (assay: competition ELISA: antibody coated, biotinylated human TIM-3 preincubated with competitor CH 11#).
Experimental: as §1

Row | inhibit percentage | Binder
58 | 67.1% | B1
59 | 100% | B2
60 | 8.26% | B3
61 | 99.7% | B4
62 | 62.5% | B5
